Test results from publication PMC11439726.

Assays:
[1] = target: recombinant human FcRn protein (neonatal Fc receptor) (human) (UniProt P55899)
[2] = target: recombinant human FcRn protein (neonatal Fc receptor) (human) (UniProt P55899); remark: listed apart in the source

reduction of basal-to-apical transcytosis of CR3022-LS across WD-HAE cultures with excess IVIG as competitor [1] | decrease of basal-to-apical transcytosis of CR3022 (400 µg) across WD-HAE cultures with 10-fold excess IVIG (4 mg) as competitor [2] | Substance
20% |  | CR3022-LS (CR3022 with Fc containing the LS mutation) (antibody)
 | 50% | CR3022 (human recombinant monoclonal antibody, wildtype IgG1-Fc)
